How the values were obtained:
[1] = tested on: MSNs in the striatum (STR); test: Promoter activity driving EYFP reporter expression after AAV injection into the SNr: striatum; format: in vivo, mice; settings: for labeled MSNs, reporter expression driven by promoter (FIG. 4B): mean±SEM, n=3 mice, AAV8R12 capsid; for Activity Level STR: numbers of YFP-expressing neurons per animal
Excerpt: (§1) Brain profiles of two epigenetic marks for enhancers and promoters, monomethylation of histone H3 lysine 4 (H3K4me1) and acetylation of histone H3 lysine 27 (H3K27ac) were checked and approximately 2 kilobase-long sequences around the transcriptional start site (TSS) that have high levels of H3K4me1 and/or H3K27ac were identified in mouse brain. Homologous sequences at equivalent positions of the human genome were then cloned onto an AAV backbone, and the activity of the homologous sequences in directing reporter expression was tested in mice after injections of AAVs into the SNr (FIG. 3A-C, TABLE 3).
G88P2 (2259 bp) was cloned with the following primers: 5′-[…] (SEQ ID NO.: 36) and 3-[…] (SEQ ID NO.: 37). To increase the payload of AAV genome, the G88P2 promoter was shorted using restriction enzymes, and two derivatives, G88P3 and G88P7, were made which were 1395-bp and 896-bp long, respectively (FIG. 3A-3C). Comparative efficiency in labeling MSNs for the two shortened promoters was observed. For mice that received viral injections into the SNr, viruses expressing EYFP driven by G88P3 and G88P7 promoters labeled 3.7±0.66×104 and 3.95±0.73×104 MSNs per mouse, respectively, compared to 1.61±0.16×104 labeled MSNs by hSyn promoter (FIG. 4B).
(§2) Region-selective promoter identification was based on the Allen Brain Atlas in situ hybridization (ISH) data (mouse.brain-map.org/). Genes highly expressed in the striatum but not in other parts of the basal ganglia were first selected as candidates. H3K4me1 and H3K27ac are known epigenetic marks for active promoters and enhancers. Thus, we identified regions with high levels of these two chromatin modification marks in mouse brain as candidate regions based on the ENCODE annotation data on the UCSC Genome Browser (genome.ucsc.edu/). To further extend the promoters' potential application in primates, the sequences of interest were PCR-amplified from human genomic DNA. Based on the above strategies, GPR88 was selected as a candidate gene. The nucleotide sequence upstream of the start codon with high H3K4me1 and H3K27ac levels was selected as the candidate promoter sequence. G88P2 (2259 bp) was cloned with the following primers: 5′-[…]-3′ (SEQ ID NO: 36), 5′-[…]-3′ (SEQ ID NO: 58). G88P3 (1395 bp) and G88P7 (896 bp) were further shortened by subcloning.
Promoters were subcloned into a pAAV-hSyn-EYFP vector derived from pAAV-hSyn-EGFP (Addgene, 50465) to replace the hSyn promoter by using appropriate restriction enzyme combinations. To generate pAAV-G88P7-DIO-tdTomato, a DIO-tdTomato cassette was subcloned into pAAV-G88P7-EYFP to replace EYFP by restriction enzyme digestion. To generate pAAV-G88P3-HA-hM3Dq, promoter G88P3 was subcloned into pAAV-hSyn-HA-hM3Dq-IRES-mCitrine (Addgene, 50463) via the EcoRI/BamHI restriction sites to replace the hSyn promoter and IRES-mCitrine was removed afterwards by restriction enzyme digestion. To generate pAAV-G88P3-HA-hM3Dq-2A-EYFP, a 2A-EYFP fragment was subcloned into pAAV-G88P3-HA-hM3Dq after hM3Dq. […]
Images were acquired using a confocal microscope (Carl Zeiss, LSM880) and an Axiolmager.Z1 microscope with apotome (Carl Zeiss). […] Every sixth section was analyzed, and numbers of EYFP+ cells were multiplied by six to acquire the approximate total number and mean number of cells per animal. […]

substantia nigra (SN) = test: Promoter activity driving EYFP reporter expression after AAV injection into the SNr: substantia nigra; format: in vivo, mice; settings: numbers of YFP-expressing neurons per animal
Excerpt: as §1
as §2, with “subcloning. […]” for “subcloning.”
Images were acquired using a confocal microscope (Carl Zeiss, LSM880) and an Axiolmager.Z1 microscope with apotome (Carl Zeiss). […] Every sixth section was analyzed, and numbers of EYFP+ cells were multiplied by six to acquire the approximate total number and mean number of cells per animal. Images were processed using ImageJ (NIH, USA), and final quantifications were independently performed manually by two blinded experimenters.

Row | Molecule | labeled MSNs, reporter expression driven by promoter (FIG. 4B) [1] | Activity Level STR [1] | Activity Level SN (substantia nigra (SN))
1 | G88P3: 1395-bp derivative of the G88P2 promoter, SEQ ID NO: 60 (nucleic acid, listed as Homo sapiens) DNA: TCTAGATGTACCACTGACATCTGCTTTAAATCTTTTGCCCATTTCATTTTTACCCTCTAACCATTTCATTACTAAAACACAAAACAAACTCCGGAAAGGAGTTTGTTGATGAGAAAACACTGAAAGTACGATTTAAATTGAGGAATGGAGATTTTCTGTGGATAATTGTCTATGTTCCACTTTACCAAAGAAAAATGAATTTCAAGTAGTGCATAAAGTAATTCTCGTTAAAAAATGTGGGAATAAAGAGATCAGTCCTGGGTACTGGGAATATATTTATCTCACAGAAAAATCTTGCCCACAAAATGCATCAGACTGAGATGAAATACTCTAGGGTATATTAAATTTTATTCTAATATTGAAGGGAGGGAAAAAAAGGACGGAAAGAAAAATGAAACAGGATGAAAAATAAGGTGATTGGGAGAGAGAAAAGACAGAGAAACTTGTTAACGACAGGACTTTCTGAGCAAGATATTTTTCTTCCTTTTACAAGTTGGAAGCTATTGAATAATTCATGCCAAGCGTGGAAAGGCTGTCTTTTCCCTGGATGATGTATAACTAAGCAGGAGAGAGCTTCGAGTGGGTTCACCACATCAGCCACCACTCCTGCTTCTGAGCACAGGGTGCTCTCCTCTTGAGCTCAGCTTCTGCTTTTGCAGCCAAGCATTCTTGCTGCTGCTGCCTGCCTGCCCACCCGCCTGGGCTTGCAGCCCGCCACTTTACTTTCTCCAGCCCTGATACCAGCTGAGAAGTCTCCCTGCAGCTGCTAGTTCCTGCCCAGGACCATGTGTGTGGATGCTGCTTGGGAGAAGCGGGCACTTGCTCCTGGCACTGATCCCAGCTGAGTTTCTCCTGTTGATTTCTGGACCACTGATGCTGTTGCTGAGGAGGTATTTCCCGGCATCCCTCCCCCTGAGACACCGGCTAAGGACCAGCCTAAACGCAAGGTAACCTTCACCTCTTTCCCATGGGATTTTCCCCAGCTGGGATATCTCTGCTTTCTCCTGGAACTAGGTCCTCCAGCTGGCAACATATCTCTCTCTCTCTCTCTCTCTCTCTCTCTCTCTCTCTGTGTGTGTGTGTGTGTGTTGGGGGAGAAGAGGAGACTGTTTTAGGTATTGCTCTGTCCTAGGGCTTCCCCGATACCTGCTGAATCCAATGCAAAGTGGCCTTTCCCCTGGCTCTGGAGACATTTCCGAGGCAGGCACCTGTCATTTGCCACCCCCGTCCTCCTCCTCGAGCTCCCTTTCTCCCCCTCCCCCAGCCCATTATTCTGCTTCAGCCTTTTGTGTCAGTGGCAGAGGGCTGAAGGGATGTCTTTGCCCTTCTGGCAGGCAGGACAGTGTCAGGATGGACCGCGCTGCCAGAAGCCGACGCTAGCGAGGGAGGTGTGAA | 37026±6646 | ++++ (>25 k) | + (<5 k)
2 | G88P7: 896-bp derivative of the G88P2 promoter, SEQ ID NO: 61 (nucleic acid, listed as Homo sapiens) DNA: ATGCCAAGCGTGGAAAGGCTGTCTTTTCCCTGGATGATGTATAACTAAGCAGGAGAGAGCTTCGAGTGGGTTCACCACATCAGCCACCACTCCTGCTTCTGAGCACAGGGTGCTCTCCTCTTGAGCTCAGCTTCTGCTTTTGCAGCCAAGCATTCTTGCTGCTGCTGCCTGCCTGCCCACCCGCCTGGGCTTGCAGCCCGCCACTTTACTTTCTCCAGCCCTGATACCAGCTGAGAAGTCTCCCTGCAGCTGCTAGTTCCTGCCCAGGACCATGTGTGTGGATGCTGCTTGGGAGAAGCGGGCACTTGCTCCTGGCACTGATCCCAGCTGAGTTTCTCCTGTTGATTTCTGGACCACTGATGCTGTTGCTGAGGAGGTATTTCCCGGCATCCCTCCCCCTGAGACACCGGCTAAGGACCAGCCTAAACGCAAGGTAACCTTCACCTCTTTCCCATGGGATTTTCCCCAGCTGGGATATCTCTGCTTTCTCCTGGAACTAGGTCCTCCAGCTGGCAACATATCTCTCTCTCTCTCTCTCTCTCTCTCTCTCTCTCTCTCTCTGTGTGTGTGTGTGTGTGTTGGGGGAGAAGAGGAGACTGTTTTAGGTATTGCTCTGTCCTAGGGCTTCCCCGATACCTGCTGAATCCAATGCAAAGTGGCCTTTCCCCTGGCTCTGGAGACATTTCCGAGGCAGGCACCTGTCATCTGCCACCCCCGTCCTCCTCCTCGAGCTCCCTTTCTCCCCCTCCCCCAGCCCATTATTCTGCTTCAGCCTTTTGTGTCAGTGGCAGAGGGCTGAAGGGATGTCTTTGCCCTTCTGGCAGGCAGGACAGTGTCAGGATGGACCGCGCTGCCAGAAGCCGACGCTAGCGAGGGAGGTGTGAAGAGTTGGCCAG | 39460±7281 | ++++ (>25 k) | + (<5 k)

— patent US20250382588A1, “CHIMERIC AAV AND USES THEREOF” (priority 2023, published 2025)
